Bridges are numbered along the chain shown (N, C = ends). Where no end group is shown, it is not given here. [ ]: non-standard residue; d: D form. The star is where a group is joined. Acetyl(2-(4-imidazolyl)) = O=C(Cc1c[nH]cn1)*; Aib = CC(C)(N)C(=O)O Some results are limits rather than exact numbers.

The results in this text go back to patent publication US20250114463A1, “LIVER-TARGETED DRUG AND USE THEREOF” (HANMI PHARM. CO., LTD., priority 2021, published 2025).

Common to all, as to experiment: cell-based or functional assay
Assay [1] concerns the target human GLP-1 receptor (human, UniProt P43220 24-463).
In assay [2] the target is human GCG receptor (human, UniProt P47871 26-477).
Assay [3] deals with T1, human GIP receptor (human, UniProt P48546 22-466).
T1 sequence (looked up): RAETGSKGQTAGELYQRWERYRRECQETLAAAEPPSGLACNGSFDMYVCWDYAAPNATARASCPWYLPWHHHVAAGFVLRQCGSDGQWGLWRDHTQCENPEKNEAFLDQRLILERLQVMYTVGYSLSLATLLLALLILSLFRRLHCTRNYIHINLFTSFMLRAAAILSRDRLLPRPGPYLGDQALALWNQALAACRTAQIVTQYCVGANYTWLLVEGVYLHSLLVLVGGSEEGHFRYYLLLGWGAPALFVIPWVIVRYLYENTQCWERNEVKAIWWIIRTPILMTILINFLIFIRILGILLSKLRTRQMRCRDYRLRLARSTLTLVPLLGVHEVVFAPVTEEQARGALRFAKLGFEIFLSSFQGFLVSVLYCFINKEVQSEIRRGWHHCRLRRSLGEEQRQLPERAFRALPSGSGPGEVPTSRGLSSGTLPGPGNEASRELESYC

Chain of human GCG receptor (P47871 26-477): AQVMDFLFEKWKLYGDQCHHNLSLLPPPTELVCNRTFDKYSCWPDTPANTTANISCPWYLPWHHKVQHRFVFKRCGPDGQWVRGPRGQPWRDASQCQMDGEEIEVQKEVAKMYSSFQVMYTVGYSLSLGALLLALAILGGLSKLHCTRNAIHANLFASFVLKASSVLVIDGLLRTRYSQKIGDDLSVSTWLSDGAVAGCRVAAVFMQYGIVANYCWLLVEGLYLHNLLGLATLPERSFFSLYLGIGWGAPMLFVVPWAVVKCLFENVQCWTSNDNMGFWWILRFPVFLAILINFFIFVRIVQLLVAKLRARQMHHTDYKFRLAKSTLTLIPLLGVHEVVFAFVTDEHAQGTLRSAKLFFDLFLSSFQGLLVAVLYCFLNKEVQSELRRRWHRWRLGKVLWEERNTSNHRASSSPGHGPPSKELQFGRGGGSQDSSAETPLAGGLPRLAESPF

On to H[Aib]QGTFTSDVSKYLDGQAAQEFVAWLLAGC (not fully specified (C-terminus)) [triple agonist of SEQ ID NO: 9], for which the “in vitro Activity Compared to Native Peptide (%), vs GLP-1” value in assay [1] stood at 32.1%. For the same molecule, the “in vitro Activity Compared to Native Peptide (%), vs Glucagon” value in assay [2] amounted to 0.13%. The “in vitro Activity Compared to Native Peptide (%), vs GIP” value in assay [3] is below 0.1%.

Consider H[Aib]EGTFTSDYSIAMDEIHQKDFVNWLLAQKC (bridge 16-20; not fully specified (C-terminus)) [triple agonist of SEQ ID NO: 79], for which the “in vitro Activity Compared to Native Peptide (%), vs GLP-1” value in assay [1] was 41.5%. For the same molecule, the “in vitro Activity Compared to Native Peptide (%), vs Glucagon” value in assay [2] came to 4.9%. Besides, the “in vitro Activity Compared to Native Peptide (%), vs GIP” value in assay [3] is 1.4%.

For the molecule Y[Aib]QGTFTSDYSKYLDEKRAKEFVQWLLCHHPSSGQPPPS (bridge 16-20; not fully specified (C-terminus)) [triple agonist of SEQ ID NO: 95], the “in vitro Activity Compared to Native Peptide (%), vs GLP-1” value in assay [1] amounted to 2.1%. Moreover, the “in vitro Activity Compared to Native Peptide (%), vs Glucagon” value in assay [2] is 0.4%. In addition, the “in vitro Activity Compared to Native Peptide (%), vs GIP” value in assay [3] was below 0.1%.

For [Acetyl(2-(4-imidazolyl))][Aib]QGTFTSDYSKYLDEKRQKEFVQWLLDTC (bridge 16-20; not fully specified (C-terminus)) [triple agonist of SEQ ID NO: 82], the “in vitro Activity Compared to Native Peptide (%), vs GLP-1” value in assay [1] turned out to be 9.5%. The “in vitro Activity Compared to Native Peptide (%), vs Glucagon” value in assay [2] came out at 1.1%. In addition, the “in vitro Activity Compared to Native Peptide (%), vs GIP” value in assay [3] was below 0.1%.

Regarding Y[Aib]QGTFTSDYSKALDEKAAKEFVNWLLDHHPSSGQPPPSC (bridge 16-20; not fully specified (C-terminus)) [triple agonist of SEQ ID NO: 98], the “in vitro Activity Compared to Native Peptide (%), vs GLP-1” value in assay [1] is 28.1%. The “in vitro Activity Compared to Native Peptide (%), vs Glucagon” value in assay [2] amounted to 8.2%. Further, the “in vitro Activity Compared to Native Peptide (%), vs GIP” value in assay [3] was 47.1%.

Turning to Y[Aib]QGTFTSDYSKYLDEKRAKEFVQWLLDHCPSSGQPPPS-NH2 (bridge 16-20) [triple agonist of SEQ ID NO: 96], in assay [1], the “in vitro Activity Compared to Native Peptide (%), vs GLP-1” value was determined as 34.4%. Further, the “in vitro Activity Compared to Native Peptide (%), vs Glucagon” value in assay [2] worked out at 195%. Further, in assay [3], the “in vitro Activity Compared to Native Peptide (%), vs GIP” value was determined as 5.2%.

Consider [Acetyl(2-(4-imidazolyl))][Aib]EGTFTSDYSIAMDEIHQKDFVDWLLAEC (bridge 16-20; not fully specified (C-terminus)) [triple agonist of SEQ ID NO: 84], for which the “in vitro Activity Compared to Native Peptide (%), vs GLP-1” value in assay [1] turned out to be 4.2%. In addition, the “in vitro Activity Compared to Native Peptide (%), vs Glucagon” value in assay [2] is below 0.1%. Moreover, the “in vitro Activity Compared to Native Peptide (%), vs GIP” value in assay [3] is below 0.1%.

For the molecule [Acetyl(2-(4-imidazolyl))][Aib]QGTFTSDYSKYLDEKRQKEFVQWLLNTC (bridge 16-20; not fully specified (C-terminus)) [triple agonist of SEQ ID NO: 81], the “in vitro Activity Compared to Native Peptide (%), vs GLP-1” value in assay [1] turned out to be 7.8%. Further, in assay [2], the “in vitro Activity Compared to Native Peptide (%), vs Glucagon” value stood at 0.3%. Further, the “in vitro Activity Compared to Native Peptide (%), vs GIP” value in assay [3] was below 0.1%.

For [Acetyl(2-(4-imidazolyl))][Aib]EGTFTSDYSIAMDEIHQKDFVNWLLAQC (bridge 16-20; not fully specified (C-terminus)) [triple agonist of SEQ ID NO: 83], the “in vitro Activity Compared to Native Peptide (%), vs GLP-1” value in assay [1] stood at 47.3%. Further, in assay [2], the “in vitro Activity Compared to Native Peptide (%), vs Glucagon” value is 1.3%. In addition, the “in vitro Activity Compared to Native Peptide (%), vs GIP” value in assay [3] came to 0.4%.

For the molecule [Acetyl(2-(4-imidazolyl))][Aib]QGTFTSDYSKYLDEKRQKEFVQWLLNTKC (bridge 16-20; not fully specified (C-terminus)) [triple agonist of SEQ ID NO: 88], in assay [1], the “in vitro Activity Compared to Native Peptide (%), vs GLP-1” value was 9.6%. The “in vitro Activity Compared to Native Peptide (%), vs Glucagon” value in assay [2] came to 0.3%. In addition, the “in vitro Activity Compared to Native Peptide (%), vs GIP” value in assay [3] was below 0.1%.

Consider [Acetyl(2-(4-imidazolyl))][Aib]QGTFTSDYSKYLDEKRQKEFVNWLLAQKC (bridge 16-20; not fully specified (C-terminus)) [triple agonist of SEQ ID NO: 93], for which the “in vitro Activity Compared to Native Peptide (%), vs GLP-1” value in assay [1] turned out to be 5.7%. Besides, the “in vitro Activity Compared to Native Peptide (%), vs Glucagon” value in assay [2] turned out to be 0.3%. In addition, in assay [3], the “in vitro Activity Compared to Native Peptide (%), vs GIP” value was found to be 0.7%.

Consider [Acetyl(2-(4-imidazolyl))][Aib]QGTFTSDYSIAMDEIHQKDFVNWLLNTC (bridge 16-20; not fully specified (C-terminus)) [triple agonist of SEQ ID NO: 87], for which, in assay [1], the “in vitro Activity Compared to Native Peptide (%), vs GLP-1” value came to 0.9%. Besides, the “in vitro Activity Compared to Native Peptide (%), vs Glucagon” value in assay [2] was below 0.1%. For the same molecule, the “in vitro Activity Compared to Native Peptide (%), vs GIP” value in assay [3] is below 0.1%.

With Y[Aib]QGTFTSDYSKYLDEKRAKEFVQWLLDCHPSSGQPPPS (bridge 16-20; not fully specified (C-terminus)) [triple agonist of SEQ ID NO: 97], the “in vitro Activity Compared to Native Peptide (%), vs GLP-1” value in assay [1] worked out at 10.5%. Further, the “in vitro Activity Compared to Native Peptide (%), vs Glucagon” value in assay [2] stood at 62.8%. The “in vitro Activity Compared to Native Peptide (%), vs GIP” value in assay [3] amounted to 2.6%.

With [Acetyl(2-(4-imidazolyl))][Aib]QGTFTSDYSIAMDEIHQKDFVNWLLNTKC (bridge 16-20; not fully specified (C-terminus)) [triple agonist of SEQ ID NO: 94], the “in vitro Activity Compared to Native Peptide (%), vs GLP-1” value in assay [1] was determined as 0.5%. Further, the “in vitro Activity Compared to Native Peptide (%), vs Glucagon” value in assay [2] was below 0.1%. Moreover, the “in vitro Activity Compared to Native Peptide (%), vs GIP” value in assay [3] was below 0.1%.

With H[Aib]QGTFTSDVSKYLDGQAAQEFVAWLLAGGGPSSGAPPPSC-NH2 [triple agonist of SEQ ID NO: 10], the “in vitro Activity Compared to Native Peptide (%), vs GLP-1” value in assay [1] amounted to 46%. The “in vitro Activity Compared to Native Peptide (%), vs Glucagon” value in assay [2] was below 0.1%. Also, the “in vitro Activity Compared to Native Peptide (%), vs GIP” value in assay [3] was below 0.1%.

For the molecule [Acetyl(2-(4-imidazolyl))][Aib]QGTFTSDYSIAMDEIHQKDFVNWLLAQC (bridge 16-20; not fully specified (C-terminus)) [triple agonist of SEQ ID NO: 85], in assay [1], the “in vitro Activity Compared to Native Peptide (%), vs GLP-1” value amounted to 4.3%. For the same molecule, the “in vitro Activity Compared to Native Peptide (%), vs Glucagon” value in assay [2] is below 0.1%. Further, the “in vitro Activity Compared to Native Peptide (%), vs GIP” value in assay [3] worked out at 0.3%.

For H[Aib]EGTFTSDYSIAMDEIHQKDFVDWLLAEKC (bridge 16-20; not fully specified (C-terminus)) [triple agonist of SEQ ID NO: 80], the “in vitro Activity Compared to Native Peptide (%), vs GLP-1” value in assay [1] amounted to 8.1%. Further, in assay [2], the “in vitro Activity Compared to Native Peptide (%), vs Glucagon” value was found to be 0%. For the same molecule, in assay [3], the “in vitro Activity Compared to Native Peptide (%), vs GIP” value is 0.1%.

For [Acetyl(2-(4-imidazolyl))][Aib]QGTFTSDYSKYLDEKRQKEFVNWLLAQC (bridge 16-20; not fully specified (C-terminus)) [triple agonist of SEQ ID NO: 86], the “in vitro Activity Compared to Native Peptide (%), vs GLP-1” value in assay [1] is 28.4%. Besides, the “in vitro Activity Compared to Native Peptide (%), vs Glucagon” value in assay [2] was found to be 0.4%. Also, the “in vitro Activity Compared to Native Peptide (%), vs GIP” value in assay [3] is 0.2%.

[Acetyl(2-(4-imidazolyl))][Aib]EGTFTSDYSIAMDEIHQKDFVDWLLAEKC (bridge 16-20; not fully specified (C-terminus)) [triple agonist of SEQ ID NO: 91]: the “in vitro Activity Compared to Native Peptide (%), vs GLP-1” value in assay [1] amounted to 31.9%. The “in vitro Activity Compared to Native Peptide (%), vs Glucagon” value in assay [2] stood at 16.8%. The “in vitro Activity Compared to Native Peptide (%), vs GIP” value in assay [3] turned out to be 0.3%.

In the case of [Acetyl(2-(4-imidazolyl))][Aib]QGTFTSDYSKYLDEKRQKEFVQWLLDTKC (bridge 16-20; not fully specified (C-terminus)) [triple agonist of SEQ ID NO: 89], the “in vitro Activity Compared to Native Peptide (%), vs GLP-1” value in assay [1] amounted to 7.1%. Also, in assay [2], the “in vitro Activity Compared to Native Peptide (%), vs Glucagon” value was determined as 0.7%. In assay [3], the “in vitro Activity Compared to Native Peptide (%), vs GIP” value is below 0.1%.

[Acetyl(2-(4-imidazolyl))][Aib]EGTFTSDYSIAMDEIHQKDFVNWLLAQKC (bridge 16-20; not fully specified (C-terminus)) [triple agonist of SEQ ID NO: 90]: the “in vitro Activity Compared to Native Peptide (%), vs GLP-1” value in assay [1] was 7.4%. Also, the “in vitro Activity Compared to Native Peptide (%), vs Glucagon” value in assay [2] was below 0.1%. Moreover, the “in vitro Activity Compared to Native Peptide (%), vs GIP” value in assay [3] was below 0.1%.

For the molecule [Acetyl(2-(4-imidazolyl))][Aib]QGTFTSDYSIAMDEIHQKDFVNWLLAQKC (bridge 16-20; not fully specified (C-terminus)) [triple agonist of SEQ ID NO: 92], the “in vitro Activity Compared to Native Peptide (%), vs GLP-1” value in assay [1] came to 0.8%. Also, the “in vitro Activity Compared to Native Peptide (%), vs Glucagon” value in assay [2] is below 0.1%. Besides, the “in vitro Activity Compared to Native Peptide (%), vs GIP” value in assay [3] was 0.4%.
